The results in this text go back to US20230203172A1.

The assay deals with human IL-4R alpha on cells (TF-1 cells; human peripheral blood mononuclear cells) (human) (UniProt P24394). Description: cell-based or functional assay.

In the case of Dupilumab (antibody), the IC50 (ng/ml), inhibition of IL-4-induced TF-1 cell proliferation turned out to be 138 ng/mL.
